Columns and labels:
Assay in all cases: IEDB peptide-MHC binding, purified MHC/competitive/radioactivity; ≥ and ≤ were set here for values at or beyond the usual limits of such assays
HLA-A*02:03 = molecular target: HLA-A*02:03
HLA-A*68:02 = molecular target: HLA-A*68:02
HLA-A*02:01 = molecular target: HLA-A*02:01
HLA-A*02:02 = molecular target: HLA-A*02:02
HLA-A*02:06 = molecular target: HLA-A*02:06
[1] = source organism: Vaccinia virus WR
[2] = source organism: Mammarenavirus lassaense
[3] = source organism: Hepacivirus hominis
[4] = source organism: Influenza A virus

| Sequence | IC50 (HLA-A*02:03; [1]) [nM] | IC50 (HLA-A*68:02; [1]) [nM] | IC50 (HLA-A*02:01; [1]) [nM] | IC50 (HLA-A*02:02; [1]) [nM] | IC50 (HLA-A*02:06; [1]) [nM] | other results |
| --- | --- | --- | --- | --- | --- | --- |
| TISGNIYSAL | 89 | 19 | 1110 | 9.3 | 2670 |  |
| LVKDESIQL | 649 | 1470 | 3150 | 122 | 1400 |  |
| LNCLSLLLSV |  |  |  |  |  | IC50 (HLA-A*02:03; [2]): 230 nM; IC50 (HLA-A*68:02; [2]): 4070 nM; IC50 (HLA-A*02:01; [2]): 191 nM; IC50 (HLA-A*02:02; [2]): 124 nM; IC50 (HLA-A*02:06; [2]): 251 nM |
| NIVTFINDYA | 245 | 82 | 827 | 62 | 351 |  |
| TICLKNEGV | 120 | 5.8 | 547 | 494 | 311 |  |
| PIIYSKAGNI | 139 | 3110 | 873 | 654 | 728 |  |
| IVNSVLLFL |  |  |  |  |  | IC50 (HLA-A*02:03; source organism: SARS-CoV1): 179 nM; IC50 (HLA-A*68:02; source organism: SARS-CoV1): 2090 nM; IC50 (HLA-A*02:01; source organism: SARS-CoV1): 68 nM; IC50 (HLA-A*02:02; source organism: SARS-CoV1): 7.1 nM; IC50 (HLA-A*02:06; source organism: SARS-CoV1): 30 nM |
| CTINVNSLA | 1610 | 13 | 1040 | 1040 | 248 |  |
| NTIAVITETI | 56 | 2.1 | 108 | 50 | 784 |  |
| FVATFRDMLL | 18 | 409 | 16 | 0.7 | 4.4 |  |
| GLSSGFYFEI | 782 | 1720 | 176 | 48 | 1740 |  |
| VLAGGVLAAV |  |  |  |  |  | IC50 (HLA-A*02:03; [3]): 6.7 nM; IC50 (HLA-A*68:02; [3]): 59 nM; IC50 (HLA-A*02:01; [3]): 7.8 nM; IC50 (HLA-A*02:02; [3]): 4.3 nM; IC50 (HLA-A*02:06; [3]): 33 nM |
| FTILEYLYI | 169 | 22 | 68 | 1560 | 267 |  |
| IIPFIAYFVL | 4730 | 76 | 991 | 715 | 852 |  |
| IICEDAMYYA | 108 | 746 | 23 | 24 | 8.8 |  |
| YVGDTSMMVI | 220 | 72 | 803 | 408 | 324 |  |
| LMIFISSFL | 0.13 | 35 | 0.32 | 0.65 | 18 |  |

| Sequence | IC50 (HLA-A*02:03; [1]) [nM] | IC50 (HLA-A*68:02; [1]) [nM] | IC50 (HLA-A*02:01; [1]) [nM] | IC50 (HLA-A*02:02; [1]) [nM] | IC50 (HLA-A*02:06; [1]) [nM] | other results |
| --- | --- | --- | --- | --- | --- | --- |
| FVFTLTVPS |  |  |  |  |  | IC50 (HLA-A*02:03; [4]): 270 nM; IC50 (HLA-A*68:02; [4]): 25 nM; IC50 (HLA-A*02:01; [4]): 514 nM; IC50 (HLA-A*02:02; [4]): 394 nM; IC50 (HLA-A*02:06; [4]): 18 nM |
| MICCDSRIVV | 392 | 27 | 25 | 665 | 52 |  |
| IIMAINVFT | 180 | 84 | 27 | 39 | 10 |  |
| EVNDTHYTV | 115 | 0.5 | 3060 | 133 | 4770 |  |
| QLFKYVPSA | 7.8 | 1620 | 7 | 12 | 349 |  |
| ALLFLMSFTI |  |  |  |  |  | IC50 (HLA-A*02:03; source organism: SARS-CoV1): 199 nM; IC50 (HLA-A*68:02; source organism: SARS-CoV1): 1770 nM; IC50 (HLA-A*02:01; source organism: SARS-CoV1): 1.6 nM; IC50 (HLA-A*02:02; source organism: SARS-CoV1): 0.37 nM; IC50 (HLA-A*02:06; source organism: SARS-CoV1): 14 nM |
| IIAVFDSKL | 107 | 2320 | 1760 | 44 | 99 |  |
| FSTSFYLISI |  |  |  |  |  | IC50 (HLA-A*02:03; [2]): 53 nM; IC50 (HLA-A*68:02; [2]): 1.8 nM; IC50 (HLA-A*02:01; [2]): 32 nM; IC50 (HLA-A*02:02; [2]): 2.1 nM; IC50 (HLA-A*02:06; [2]): 9.2 nM |
| TTFITVLTSV | 16 | 15 | 271 | 1120 | 166 |  |
| IMQVFFGYFA |  |  |  |  |  | IC50 (HLA-A*02:03; source organism: SARS-CoV1): 1570 nM; IC50 (HLA-A*68:02; source organism: SARS-CoV1): 4500 nM; IC50 (HLA-A*02:01; source organism: SARS-CoV1): 290 nM; IC50 (HLA-A*02:02; source organism: SARS-CoV1): 590 nM; IC50 (HLA-A*02:06; source organism: SARS-CoV1): 51 nM |
| ITAIYVFCI |  |  |  |  |  | IC50 (HLA-A*02:03; source organism: SARS-CoV1): 89 nM; IC50 (HLA-A*68:02; source organism: SARS-CoV1): 272 nM; IC50 (HLA-A*02:01; source organism: SARS-CoV1): 127 nM; IC50 (HLA-A*02:02; source organism: SARS-CoV1): 29 nM; IC50 (HLA-A*02:06; source organism: SARS-CoV1): 132 nM |
| CIVAAVIIMA | 619 | 1.3 | 1900 | 1130 | 733 |  |
| ILYYGANGST | 39 | 3830 | 290 | 341 | 1840 |  |
| RIYCSLFKNV | 30 | 549 | 62 | 913 | 7.1 |  |
| MVTDKTAYI | 2 | 3.2 | 227 | 17 | 25 |  |
| KTDGAVTSPL | 400 | 542 | 1080 | 62 | 347 |  |
| DVLPFDIKYI | 188 | 361 | 183 | 1200 | 1110 |  |

Source: the Immune Epitope Database (IEDB)
